Test results published in paper PMC11305080 (2024).

B1: HIT01-K21Q-R218E (cleavage-resistant variant of HIT01) (designed binder)
chain 1: DYSEDQEVKAPQLDHPDPGTERVAELLRCTKSVWRIPEQYLVVLREGTRDSHVQRTVSTLRAQAARRGHAIHIMHTYSGVFHGFLIKMSSEVLPMALKLPHVAYIEEDSSIFAQ
chain 2: SIPWNLQRIIQTKHETGKYTPPNDGAQVTVFLLDTSVQTDHREIEGKVMVTDFNSMPKEDGTRFHESASKCESHGTHIAGVLSGRDAGVARGVSVNTVRVLNCQGRGTVSGALAGLEYIRASLQAQPVSPVIILLPFVGGFSRTLNTACREMVHSGAVLIAAAGNYQDDACMYSPASEPEVITVGASNAADRPLSSGTTGTNLGRCVDVFAPGEDIISASGDCSTCFVSMSGTSQSAAHAAGIAAVLLNAYPSASPAEVLQLLRYHAVQRVINPDSLPPEHYLTTPDMVAALPTSAATGEKLLCRSVWSKRSGVGSFDTAVARCRHGEEMFSCSSYSPNGVHAGERIEIRDGQKVCEAHHGIGGQGVYAVARCCTGSRVKCHASASLHVGIDAECPSQEFQLTGCSSHYIRSQDVAQPSWPLHSNRKACPAGEGGTSHAFCCHAPNLECHLIEHHQSEFTKQVEVSCEDSWTLTGCNAVSHGSVTHAAYTRGNTCVIQMFGGDKGAAAIAICCRYRPLDQQSNNNHEQNT

Columns and labels:
Assay in all cases: BLI
[1] = target: B1
J16 = target: J16
[2] = target: human proprotein convertase subtilisin/kexin type 9 (PCSK9) (human, UniProt Q8NBP7 153-692)

Kd [1]	Kd (J16)	Kd [2]	Binder
1.83 nM			1D05 Fab (Fab, V domains shown) VH: QVQLVQSGAEVKKPGSSVKVSCKASGGTFNSHAISWVRQAPGQGLEWMGGINPILGIANYAQKFQGRVTITADESTSTAYMELSSLRSEDTAVYYCARHYEIQIGRYGMNVYYLMYRFASWGQGTLVTVSS VL: DIQMTQSPSSLSASVGDRVTITCRASQGIRSALNWYQQKPGKAPKLLIYNGSTLQSGVPSRFSGSGSGTDFTLTISSLQPEDFAVYYCQQFDGDPTFGQGTKVEIK
	0.62 nM		B1
0.19 nM		0.17 nM	AMG145 (evolocumab) IgG (antibody, V domains shown) VH: EVQLVQSGAEVKKPGASVKVSCKASGYTLTSYGISWVRQAPGQGLEWMGWVSFYNGNTNYAQKLQGRGTMTTDPSTSTAYMELRSLRSDDTAVYYCARGYGMDVWGQGTTVTVSS VL: ESALTQPASVSGSPGQSITISCTGTSSDVGGYNSVSWYQQHPGKAPKLMIYEVSNRPSGVSNRFSGSKSGNTASLTISGLQAEDEADYYCNSYTSTSMVFGGGTKLTVL
